# Assay results from publication PMC5098211.
# Tests used:
# [1] = biological target: human NaV1.5 voltage-gated sodium channel (human) (UniProt Q14524)
# [2] = biological target: human NaV1.5 voltage-gated sodium channel (human) (UniProt Q14524); remark: listed apart in the source
# Chain of UniProt Q14524 (Q14524 whole entry): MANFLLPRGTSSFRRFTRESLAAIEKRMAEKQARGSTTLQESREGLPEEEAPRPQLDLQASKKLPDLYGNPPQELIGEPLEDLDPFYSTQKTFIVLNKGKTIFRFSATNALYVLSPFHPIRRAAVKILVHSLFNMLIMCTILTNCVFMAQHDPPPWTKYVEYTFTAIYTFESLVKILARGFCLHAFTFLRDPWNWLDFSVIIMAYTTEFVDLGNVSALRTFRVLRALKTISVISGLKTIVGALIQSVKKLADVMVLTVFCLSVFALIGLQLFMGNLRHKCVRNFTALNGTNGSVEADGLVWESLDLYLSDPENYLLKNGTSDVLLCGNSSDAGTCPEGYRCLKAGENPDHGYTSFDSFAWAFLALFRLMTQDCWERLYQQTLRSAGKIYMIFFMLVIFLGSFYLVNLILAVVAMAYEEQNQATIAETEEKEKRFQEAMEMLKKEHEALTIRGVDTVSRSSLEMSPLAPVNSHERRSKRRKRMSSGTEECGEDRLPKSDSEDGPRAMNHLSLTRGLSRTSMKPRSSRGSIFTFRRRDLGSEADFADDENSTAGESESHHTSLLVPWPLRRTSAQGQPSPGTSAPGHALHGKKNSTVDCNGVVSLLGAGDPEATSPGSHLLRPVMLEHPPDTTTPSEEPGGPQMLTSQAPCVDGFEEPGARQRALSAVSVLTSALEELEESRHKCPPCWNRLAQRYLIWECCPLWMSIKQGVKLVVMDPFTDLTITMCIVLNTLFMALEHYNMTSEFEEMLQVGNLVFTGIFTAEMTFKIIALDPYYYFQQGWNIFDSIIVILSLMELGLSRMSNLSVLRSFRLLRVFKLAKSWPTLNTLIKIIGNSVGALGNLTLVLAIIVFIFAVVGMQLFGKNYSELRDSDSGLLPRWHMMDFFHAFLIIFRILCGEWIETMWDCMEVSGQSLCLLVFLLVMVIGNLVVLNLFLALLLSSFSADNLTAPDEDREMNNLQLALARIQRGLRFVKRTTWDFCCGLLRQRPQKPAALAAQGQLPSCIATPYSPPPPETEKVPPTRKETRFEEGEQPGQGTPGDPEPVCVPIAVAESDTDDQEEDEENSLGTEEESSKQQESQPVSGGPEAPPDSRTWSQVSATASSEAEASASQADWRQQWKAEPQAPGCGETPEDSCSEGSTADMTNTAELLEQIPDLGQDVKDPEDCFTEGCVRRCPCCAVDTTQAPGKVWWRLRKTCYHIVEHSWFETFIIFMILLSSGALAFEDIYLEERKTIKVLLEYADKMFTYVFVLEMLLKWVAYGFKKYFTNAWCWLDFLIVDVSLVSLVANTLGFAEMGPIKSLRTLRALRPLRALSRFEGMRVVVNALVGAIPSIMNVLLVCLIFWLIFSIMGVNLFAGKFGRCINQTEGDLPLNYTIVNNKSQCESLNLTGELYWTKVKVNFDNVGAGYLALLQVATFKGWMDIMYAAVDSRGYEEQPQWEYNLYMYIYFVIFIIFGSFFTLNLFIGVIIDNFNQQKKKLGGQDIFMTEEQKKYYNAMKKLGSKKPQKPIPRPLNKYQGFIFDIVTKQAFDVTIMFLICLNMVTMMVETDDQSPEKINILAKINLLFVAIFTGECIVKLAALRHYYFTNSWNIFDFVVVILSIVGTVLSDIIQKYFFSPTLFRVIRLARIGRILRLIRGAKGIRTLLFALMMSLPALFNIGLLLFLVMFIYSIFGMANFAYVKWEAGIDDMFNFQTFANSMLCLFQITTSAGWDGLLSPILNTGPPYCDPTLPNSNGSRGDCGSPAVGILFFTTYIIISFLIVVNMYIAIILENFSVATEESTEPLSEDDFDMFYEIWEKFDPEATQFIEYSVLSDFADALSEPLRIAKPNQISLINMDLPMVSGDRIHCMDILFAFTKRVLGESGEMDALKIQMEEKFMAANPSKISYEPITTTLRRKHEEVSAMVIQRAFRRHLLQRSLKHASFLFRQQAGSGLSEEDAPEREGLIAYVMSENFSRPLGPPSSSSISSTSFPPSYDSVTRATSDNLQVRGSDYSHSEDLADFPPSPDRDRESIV
substance,measurement,setting,value
"FS50, salivary protein from the flea Xenopsylla cheopis (from UniProt A2IAD2 20-96) (natural protein)","IC50 of inhibition of NaV1.5 currents, whole-cell patch clamp on HEK 293T cells, FS50 from 0.1 nM to 100 μM",[1],1580 nM
same,"reduction of the control peak amplitude of the NaV1.5 current at 10 μM FS50, whole-cell patch clamp on HEK 293T cells (at 30 μM the remaining inward current was eliminated completely)",[1],82.5%
same,"time constant of inhibition of NaV1.5 currents at 5 μM FS50, whole-cell patch clamp on HEK 293T cells",[2],15 s
